{"source": "paper doi:10.1101/2025.11.04.686334", "about": "(bioRxiv, 2025)", "binders": {"B1": {"name": "FluA-20 mAb (antibody, V domains shown)", "VH": "QVQLEESGPGLVKPSETLSLTCSVSGVSVTSDIYYWTWIRQPPGKGLEWIGYIFYNGDTNYNPSLKSRVTMSIDTSKNEFSLRLTSVTAADTAVYFCARGTEDLGYCSSGSCPNHWGQGTLVTVSS", "VL": "DIVMTQSPSSLSASIGDRVTITCRPSQNIRSFLNWFQHKPGKAPKLLIYAASNLQSGVPSRFSGSGSGTEFTLTIRSLQPEDFATYYCQQSYNTPPTFGQGTKVEIK"}}, "molecular_target": "HA head domain of A/Hong Kong/1/1968 (H3N2) (Influenza A virus A/Hong Kong/1/1968 …, strain)", "test": "ELISA", "settings": "both partners purified", "data": [{"binder": "B1", "values": [{"measurement": "binding result", "value": "binds"}]}]}
